Laboratory results taken from US20050271638A1 (published 2005).

Biological target: T1, β-catenin (mouse, UniProt Q02248 2-781)
T1 construct: whole, on cells; Detected by immunostaining; also called B-catenin
T1 sequence (looked up): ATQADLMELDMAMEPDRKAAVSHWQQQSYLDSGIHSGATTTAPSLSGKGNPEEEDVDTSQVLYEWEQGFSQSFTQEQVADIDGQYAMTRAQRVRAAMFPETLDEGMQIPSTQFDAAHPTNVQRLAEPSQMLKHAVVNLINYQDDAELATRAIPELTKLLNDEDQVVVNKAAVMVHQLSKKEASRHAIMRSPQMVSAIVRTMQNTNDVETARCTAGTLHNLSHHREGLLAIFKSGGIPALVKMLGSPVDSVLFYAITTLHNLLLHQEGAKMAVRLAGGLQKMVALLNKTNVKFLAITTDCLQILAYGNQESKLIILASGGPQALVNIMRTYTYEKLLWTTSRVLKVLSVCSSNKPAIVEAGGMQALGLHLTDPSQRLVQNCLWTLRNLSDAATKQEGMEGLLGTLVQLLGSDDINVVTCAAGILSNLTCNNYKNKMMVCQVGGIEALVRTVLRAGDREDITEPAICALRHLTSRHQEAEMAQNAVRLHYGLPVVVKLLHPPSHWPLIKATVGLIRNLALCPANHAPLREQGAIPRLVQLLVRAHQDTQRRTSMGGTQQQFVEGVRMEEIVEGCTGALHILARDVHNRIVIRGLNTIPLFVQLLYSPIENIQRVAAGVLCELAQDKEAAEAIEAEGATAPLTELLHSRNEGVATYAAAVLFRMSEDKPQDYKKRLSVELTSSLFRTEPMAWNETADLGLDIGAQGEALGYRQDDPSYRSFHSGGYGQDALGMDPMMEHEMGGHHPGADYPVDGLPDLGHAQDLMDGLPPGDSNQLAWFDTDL
Assay: co-immunostaining of wild-type mouse intestine sections (FIG. 7G)

B1: N-cadherin (other, mouse, UniProt P15116 160-906, looked up)
chain: DWVIPPINLPENSRGPFPQELVRIRSDRDKNLSLRYSVTGPGADQPPTGIFIINPISGQLSVTKPLDRELIARFHLRAHAVDINGNQVENPIDIVINVIDMNDNRPEFLHQVWNGSVPEGSKPGTYVMTVTAIDADDPNALNGMLRYRILSQAPSTPSPNMFTINNETGDIITVAAGLDREKVQQYTLIIQATDMEGNPTYGLSNTATAVITVTDVNDNPPEFTAMTFYGEVPENRVDVIVANLTVTDKDQPHTPAWNAAYRISGGDPTGRFAILTDPNSNDGLVTVVKPIDFETNRMFVLTVAAENQVPLAKGIQHPPQSTATVSVTVIDVNENPYFAPNPKIIRQEEGLHAGTMLTTLTAQDPDRYMQQNIRYTKLSDPANWLKIDPVNGQITTIAVLDRESPNVKNNIYNATFLASDNGIPPMSGTGTLQIYLLDINDNAPQVLPQEAETCETPEPNSINITALDYDIDPNAGPFAFDLPLSPVTIKRNWTINRLNGDFAQLNLKIKFLEAGIYEVPIIITDSGNPPKSNISILRVKVCQCDSNGDCTDVDRIVGAGLGTGAIIAILLCIIILLILVLMFVVWMKRRDKERQAKQLLIDPEDDVRDNILKYDEEGGGEEDQDYDLSQLQQPDTVEPDAIKPVGIRRLDERPIHAEPQYPVRSAAPHPGDIGDFINEGLKAADNDPTAPPYDSLLVFDYEGSGSTAGSLSSLNSSSSGGDQDYDYLNDWGPRFKKLADMYGGGDD
notes: whole, on cells; Detected by immunostaining
B1: binds.
